The text below walks through data of patent US20140213513A1 (Sanofi, priority 2012, published 2014).

Assay in all cases: cell-based or functional assay
In one assay the target is human GLP-1 receptor (human, UniProt P43220 24-463).
The next assay concerns the target T1, human GIP receptor (human, UniProt P48546 22-466).
T1 sequence (looked up): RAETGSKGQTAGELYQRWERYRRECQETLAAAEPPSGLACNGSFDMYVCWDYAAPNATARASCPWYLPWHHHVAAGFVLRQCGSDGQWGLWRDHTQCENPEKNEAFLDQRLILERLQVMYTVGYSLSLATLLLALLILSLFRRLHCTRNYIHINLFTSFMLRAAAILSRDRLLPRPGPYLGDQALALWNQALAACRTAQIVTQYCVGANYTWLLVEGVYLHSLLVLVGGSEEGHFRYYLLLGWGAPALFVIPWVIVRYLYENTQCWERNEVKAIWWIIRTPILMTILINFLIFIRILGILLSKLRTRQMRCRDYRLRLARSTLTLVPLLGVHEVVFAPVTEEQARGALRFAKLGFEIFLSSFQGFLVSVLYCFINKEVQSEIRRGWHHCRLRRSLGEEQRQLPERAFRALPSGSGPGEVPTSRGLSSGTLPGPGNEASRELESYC

The target in the next assay is human glucagon receptor (human, UniProt P47871 26-477).
Sequence of human glucagon receptor (P47871 26-477): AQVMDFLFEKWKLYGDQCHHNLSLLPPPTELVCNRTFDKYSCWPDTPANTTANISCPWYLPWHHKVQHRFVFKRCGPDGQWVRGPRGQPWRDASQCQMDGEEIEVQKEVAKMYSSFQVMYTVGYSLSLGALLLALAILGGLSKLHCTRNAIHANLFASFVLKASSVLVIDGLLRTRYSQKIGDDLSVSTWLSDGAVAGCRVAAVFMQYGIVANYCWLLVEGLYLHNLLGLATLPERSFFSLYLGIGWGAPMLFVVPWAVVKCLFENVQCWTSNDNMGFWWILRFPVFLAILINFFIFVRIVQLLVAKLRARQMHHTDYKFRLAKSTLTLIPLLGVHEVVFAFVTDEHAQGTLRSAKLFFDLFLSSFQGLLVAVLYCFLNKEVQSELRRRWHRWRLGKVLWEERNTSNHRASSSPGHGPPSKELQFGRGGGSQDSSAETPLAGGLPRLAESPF

*1 amine or outer side, *2 acyl side, *3 side chain or, on linkers, in order; H or OH if unused. Where no end group is shown, it is not given here. Side-chain parts run from the residue outwards. [ ]: non-standard residue; d: D form. The star is where a group is joined. γGlu = O=C(O)[C@H](CCC(=O)[*:2])N[*:1]; Stearoyl = CCCCCCCCCCCCCCCCCC(=O)*; Palmitoyl = CCCCCCCCCCCCCCCC(=O)*; Aib = CC(C)(N)C(=O)O

B1: exendin-4 peptide analogue SEQ ID NO: 46 (peptide)
peptide: Y[Aib]QGTFTSDLSIQK([γGlu-Palmitoyl])EKRAVQLFIEWLKNGGPSSGAPPPS-NH2
modifications: N-terminus assumed
SMILES: CCCCCCCCCCCCCCCC(=O)N[C@@H](CCC(=O)NCCCC[C@H](NC(=O)[C@H](CCC(N)=O)NC(=O)[C@@H](NC(=O)[C@H](CO)NC(=O)[C@H](CC(C)C)NC(=O)[C@H](CC(=O)O)NC(=O)[C@H](CO)NC(=O)[C@@H](NC(=O)[C@H](Cc1ccccc1)NC(=O)[C@@H](NC(=O)CNC(=O)[C@H](CCC(N)=O)NC(=O)C(C)(C)NC(=O)[C@@H](N)Cc1ccc(O)cc1)[C@@H](C)O)[C@@H](C)O)[C@@H](C)CC)C(=O)N[C@@H](CCC(=O)O)C(=O)N[C@@H](CCCCN)C(=O)N[C@@H](CCCNC(=N)N)C(=O)N[C@@H](C)C(=O)N[C@H](C(=O)N[C@@H](CCC(N)=O)C(=O)N[C@@H](CC(C)C)C(=O)N[C@@H](Cc1ccccc1)C(=O)N[C@H](C(=O)N[C@@H](CCC(=O)O)C(=O)N[C@@H](Cc1c[nH]c2ccccc12)C(=O)N[C@@H](CC(C)C)C(=O)N[C@@H](CCCCN)C(=O)N[C@@H](CC(N)=O)C(=O)NCC(=O)NCC(=O)N1CCC[C@H]1C(=O)N[C@@H](CO)C(=O)N[C@@H](CO)C(=O)NCC(=O)N[C@@H](C)C(=O)N1CCC[C@H]1C(=O)N1CCC[C@H]1C(=O)N1CCC[C@H]1C(=O)N[C@@H](CO)C(N)=O)[C@@H](C)CC)C(C)C)C(=O)O
As to B1, the “EC50 hGLP-1 R” value in the assay with human GLP-1 receptor amounted to 0.0235 nM. The “EC50 hGIP R” value in the assay with human GIP receptor came to 0.0202 nM. For the same molecule, the “EC50 hGLUC R” value in the assay with human glucagon receptor is 0.53 nM.

B2: exendin-4 peptide analogue SEQ ID NO: 43 (peptide)
peptide: Y[Aib]QGTFTSDLSIQK([γGlu-Palmitoyl])DSRAAQDFIEWLKKGGPSSGAPPPS-NH2
modifications: N-terminus assumed
SMILES: CCCCCCCCCCCCCCCC(=O)N[C@@H](CCC(=O)NCCCC[C@H](NC(=O)[C@H](CCC(N)=O)NC(=O)[C@@H](NC(=O)[C@H](CO)NC(=O)[C@H](CC(C)C)NC(=O)[C@H](CC(=O)O)NC(=O)[C@H](CO)NC(=O)[C@@H](NC(=O)[C@H](Cc1ccccc1)NC(=O)[C@@H](NC(=O)CNC(=O)[C@H](CCC(N)=O)NC(=O)C(C)(C)NC(=O)[C@@H](N)Cc1ccc(O)cc1)[C@@H](C)O)[C@@H](C)O)[C@@H](C)CC)C(=O)N[C@@H](CC(=O)O)C(=O)N[C@@H](CO)C(=O)N[C@@H](CCCNC(=N)N)C(=O)N[C@@H](C)C(=O)N[C@@H](C)C(=O)N[C@@H](CCC(N)=O)C(=O)N[C@@H](CC(=O)O)C(=O)N[C@@H](Cc1ccccc1)C(=O)N[C@H](C(=O)N[C@@H](CCC(=O)O)C(=O)N[C@@H](Cc1c[nH]c2ccccc12)C(=O)N[C@@H](CC(C)C)C(=O)N[C@@H](CCCCN)C(=O)N[C@@H](CCCCN)C(=O)NCC(=O)NCC(=O)N1CCC[C@H]1C(=O)N[C@@H](CO)C(=O)N[C@@H](CO)C(=O)NCC(=O)N[C@@H](C)C(=O)N1CCC[C@H]1C(=O)N1CCC[C@H]1C(=O)N1CCC[C@H]1C(=O)N[C@@H](CO)C(N)=O)[C@@H](C)CC)C(=O)O
Regarding B2, the “EC50 hGLP-1 R” value with human GLP-1 receptor is 0.007 nM. Besides, the “EC50 hGIP R” value with human GIP receptor was 0.0482 nM. In the assay with human glucagon receptor, the “EC50 hGLUC R” value amounted to 0.114 nM.

B3: exendin-4 peptide analogue SEQ ID NO: 45 (peptide)
peptide: Y[Aib]QGTFTSDLSIQK([γGlu-Palmitoyl])EKRAAQLFIEWLKNGGPSSGAPPPS-NH2
modifications: N-terminus assumed
SMILES: CCCCCCCCCCCCCCCC(=O)N[C@@H](CCC(=O)NCCCC[C@H](NC(=O)[C@H](CCC(N)=O)NC(=O)[C@@H](NC(=O)[C@H](CO)NC(=O)[C@H](CC(C)C)NC(=O)[C@H](CC(=O)O)NC(=O)[C@H](CO)NC(=O)[C@@H](NC(=O)[C@H](Cc1ccccc1)NC(=O)[C@@H](NC(=O)CNC(=O)[C@H](CCC(N)=O)NC(=O)C(C)(C)NC(=O)[C@@H](N)Cc1ccc(O)cc1)[C@@H](C)O)[C@@H](C)O)[C@@H](C)CC)C(=O)N[C@@H](CCC(=O)O)C(=O)N[C@@H](CCCCN)C(=O)N[C@@H](CCCNC(=N)N)C(=O)N[C@@H](C)C(=O)N[C@@H](C)C(=O)N[C@@H](CCC(N)=O)C(=O)N[C@@H](CC(C)C)C(=O)N[C@@H](Cc1ccccc1)C(=O)N[C@H](C(=O)N[C@@H](CCC(=O)O)C(=O)N[C@@H](Cc1c[nH]c2ccccc12)C(=O)N[C@@H](CC(C)C)C(=O)N[C@@H](CCCCN)C(=O)N[C@@H](CC(N)=O)C(=O)NCC(=O)NCC(=O)N1CCC[C@H]1C(=O)N[C@@H](CO)C(=O)N[C@@H](CO)C(=O)NCC(=O)N[C@@H](C)C(=O)N1CCC[C@H]1C(=O)N1CCC[C@H]1C(=O)N1CCC[C@H]1C(=O)N[C@@H](CO)C(N)=O)[C@@H](C)CC)C(=O)O
As to B3, the “EC50 hGLP-1 R” value with human GLP-1 receptor is 0.0114 nM. The “EC50 hGIP R” value in the assay with human GIP receptor was found to be 0.0234 nM. For the same molecule, the “EC50 hGLUC R” value in the assay with human glucagon receptor stood at 0.0797 nM.

B4: exendin-4 peptide analogue SEQ ID NO: 44 (peptide)
peptide: Y[Aib]QGTFTSDLSIQK([γGlu-Palmitoyl])DKRAAQDFIEWLKKGGPSSGAPPPS-NH2
modifications: N-terminus assumed
SMILES: CCCCCCCCCCCCCCCC(=O)N[C@@H](CCC(=O)NCCCC[C@H](NC(=O)[C@H](CCC(N)=O)NC(=O)[C@@H](NC(=O)[C@H](CO)NC(=O)[C@H](CC(C)C)NC(=O)[C@H](CC(=O)O)NC(=O)[C@H](CO)NC(=O)[C@@H](NC(=O)[C@H](Cc1ccccc1)NC(=O)[C@@H](NC(=O)CNC(=O)[C@H](CCC(N)=O)NC(=O)C(C)(C)NC(=O)[C@@H](N)Cc1ccc(O)cc1)[C@@H](C)O)[C@@H](C)O)[C@@H](C)CC)C(=O)N[C@@H](CC(=O)O)C(=O)N[C@@H](CCCCN)C(=O)N[C@@H](CCCNC(=N)N)C(=O)N[C@@H](C)C(=O)N[C@@H](C)C(=O)N[C@@H](CCC(N)=O)C(=O)N[C@@H](CC(=O)O)C(=O)N[C@@H](Cc1ccccc1)C(=O)N[C@H](C(=O)N[C@@H](CCC(=O)O)C(=O)N[C@@H](Cc1c[nH]c2ccccc12)C(=O)N[C@@H](CC(C)C)C(=O)N[C@@H](CCCCN)C(=O)N[C@@H](CCCCN)C(=O)NCC(=O)NCC(=O)N1CCC[C@H]1C(=O)N[C@@H](CO)C(=O)N[C@@H](CO)C(=O)NCC(=O)N[C@@H](C)C(=O)N1CCC[C@H]1C(=O)N1CCC[C@H]1C(=O)N1CCC[C@H]1C(=O)N[C@@H](CO)C(N)=O)[C@@H](C)CC)C(=O)O
On to B4, for which, in the assay with human GLP-1 receptor, the “EC50 hGLP-1 R” value amounted to 0.0097 nM. In addition, the “EC50 hGIP R” value with human GIP receptor worked out at 0.0255 nM. Also, the “EC50 hGLUC R” value with human glucagon receptor is 0.0552 nM.

B5: exendin-4 peptide analogue SEQ ID NO: 9 (peptide)
peptide: Y[Aib]QGTFTSDLSIQK([γGlu-Palmitoyl])EK[Aib]AA[Aib]EFIEWLKNTGPSSGAPPPS-NH2
modifications: N-terminus assumed
SMILES: CCCCCCCCCCCCCCCC(=O)N[C@@H](CCC(=O)NCCCC[C@H](NC(=O)[C@H](CCC(N)=O)NC(=O)[C@@H](NC(=O)[C@H](CO)NC(=O)[C@H](CC(C)C)NC(=O)[C@H](CC(=O)O)NC(=O)[C@H](CO)NC(=O)[C@@H](NC(=O)[C@H](Cc1ccccc1)NC(=O)[C@@H](NC(=O)CNC(=O)[C@H](CCC(N)=O)NC(=O)C(C)(C)NC(=O)[C@@H](N)Cc1ccc(O)cc1)[C@@H](C)O)[C@@H](C)O)[C@@H](C)CC)C(=O)N[C@@H](CCC(=O)O)C(=O)N[C@@H](CCCCN)C(=O)NC(C)(C)C(=O)N[C@@H](C)C(=O)N[C@@H](C)C(=O)NC(C)(C)C(=O)N[C@@H](CCC(=O)O)C(=O)N[C@@H](Cc1ccccc1)C(=O)N[C@H](C(=O)N[C@@H](CCC(=O)O)C(=O)N[C@@H](Cc1c[nH]c2ccccc12)C(=O)N[C@@H](CC(C)C)C(=O)N[C@@H](CCCCN)C(=O)N[C@@H](CC(N)=O)C(=O)N[C@H](C(=O)NCC(=O)N1CCC[C@H]1C(=O)N[C@@H](CO)C(=O)N[C@@H](CO)C(=O)NCC(=O)N[C@@H](C)C(=O)N1CCC[C@H]1C(=O)N1CCC[C@H]1C(=O)N1CCC[C@H]1C(=O)N[C@@H](CO)C(N)=O)[C@@H](C)O)[C@@H](C)CC)C(=O)O
B5: in the assay with human GLP-1 receptor, the “EC50 hGLP-1 R” value is 0.0055 nM. In the assay with human GIP receptor, the “EC50 hGIP R” value was determined as 0.009 nM. The “EC50 hGLUC R” value with human glucagon receptor was 0.445 nM.

B6: exendin-4 peptide analogue SEQ ID NO: 42 (peptide)
peptide: Y[Aib]EGTFTSDLSIQK([γGlu-Stearoyl])ESKAAQEFIEWLKAGGPSSGAPPPS-NH2
modifications: N-terminus assumed
SMILES: CCCCCCCCCCCCCCCCCC(=O)N[C@@H](CCC(=O)NCCCC[C@H](NC(=O)[C@H](CCC(N)=O)NC(=O)[C@@H](NC(=O)[C@H](CO)NC(=O)[C@H](CC(C)C)NC(=O)[C@H](CC(=O)O)NC(=O)[C@H](CO)NC(=O)[C@@H](NC(=O)[C@H](Cc1ccccc1)NC(=O)[C@@H](NC(=O)CNC(=O)[C@H](CCC(=O)O)NC(=O)C(C)(C)NC(=O)[C@@H](N)Cc1ccc(O)cc1)[C@@H](C)O)[C@@H](C)O)[C@@H](C)CC)C(=O)N[C@@H](CCC(=O)O)C(=O)N[C@@H](CO)C(=O)N[C@@H](CCCCN)C(=O)N[C@@H](C)C(=O)N[C@@H](C)C(=O)N[C@@H](CCC(N)=O)C(=O)N[C@@H](CCC(=O)O)C(=O)N[C@@H](Cc1ccccc1)C(=O)N[C@H](C(=O)N[C@@H](CCC(=O)O)C(=O)N[C@@H](Cc1c[nH]c2ccccc12)C(=O)N[C@@H](CC(C)C)C(=O)N[C@@H](CCCCN)C(=O)N[C@@H](C)C(=O)NCC(=O)NCC(=O)N1CCC[C@H]1C(=O)N[C@@H](CO)C(=O)N[C@@H](CO)C(=O)NCC(=O)N[C@@H](C)C(=O)N1CCC[C@H]1C(=O)N1CCC[C@H]1C(=O)N1CCC[C@H]1C(=O)N[C@@H](CO)C(N)=O)[C@@H](C)CC)C(=O)O
As to B6, the “EC50 hGLP-1 R” value in the assay with human GLP-1 receptor came out at 0.0062 nM. Besides, in the assay with human GIP receptor, the “EC50 hGIP R” value amounted to 0.0129 nM. In addition, in the assay with human glucagon receptor, the “EC50 hGLUC R” value was found to be 8.47 nM.
